The values below come from PMC8617236.

This experiment addresses chicken LPCAT3 (cLPCAT3), Twin-Strep tag removed, purified in LMNG/GDN (Gallus gallus). Briefly: cryo-EM structure; cLPCAT3 extracted with LMNG, dimer fractions from SEC in GDN; with 0.2 mM arachidonoyl CoA (3.49 Å) or 0.5 mM 12:0-LPC (3.57 Å); C2 symmetry.

As a reminder, the stoichiometry N is a count of units in the complex or per binding partner.

Consider “chicken LPCAT3 (cLPCAT3), Twin-Strep tag removed, purified in LMNG/GDN (enzyme)”, for which the stoichiometry N was 2.
